The supplement of paper PMC9170038

Tested on: MS2 coat protein
Test: apparent KD of MS2 coat protein; designed switch direction (-1 OFF switch, 1 ON switch): -1; higher = weaker reporter binding
Summary of the method: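 SNAP-549-labelled MS2 coat protein was titrated, doubling from 0.7 or 1.5 nM to 3 µM, over designed RNA switches transcribed on Illumina chips by stalled E. coli RNA polymerase. Runs were done without input, with 200 uM small-molecule ligand, or with an oligonucleotide input. Apparent KD is the per-design median over clusters of curve-fitted normalised fluorescence.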

[1] = Eterna round: R95, input ligand: FMN 200 uM
[2] = Eterna round: R95, input ligand: microRNA oligo, concentration not stated
[3] = Eterna round: R95, input ligand: none
[4] = input ligand: microRNA oligo, concentration not stated

Row | Sequence | apparent KD of MS2 coat protein [1] [nM] | apparent KD of MS2 coat protein [2] [nM] | apparent KD of MS2 coat protein [3] [nM] | apparent KD of MS2 coat protein (input ligand: FMN 200 uM) [nM] | apparent KD of MS2 coat protein [4] [nM] | apparent KD of MS2 coat protein (input ligand: none) [nM]
1 | CUGGUCCGAGGAUAUAUUAAGUGAAACAUGAGGAUCACCCAUGUUAUUUGAUGGAUGUAAAUAGAAGGCGGACUAG [JL-ex5-3.13] (puzzle: Exclusion 5) | 23.8 | 33.1 | 49.1 |  |  | 
2 | UGGUGUUACGUAGGAUAUUGUCAACAGGCAGUAGGAUAUGCGAAAGCAGAAGGACCGCCAACAGGCGAGAAGGACGGGUUACCU [pwkr exNG2 2xF7 2xFMN.8] (Eterna round: R96, puzzle: Exclusion NG 2) |  |  |  | 136 | 145 | 211
3 | CCUGCACAUGAGGAUCACCCAUGUCAGGAUAUCUCGCCGUGUGGAGCAACACGGUAUAAGAGAAGGGACACGGG [Gegexeusre] (puzzle: Exclusion 1) |  | 22.8 |  |  |  | 
4 | AAGUACCGUCACGAUAGUGAUGGUACAACAAGUAGUGAAACAUGAGGAUCACCCAUGUCCUCUUUUGCUCGUCUUAU [Sensor 3 - 88] (puzzle: Sensor v3, turn-off variant 2) | 931 | 54 | 969 |  |  | 
5 | UCUGGUCGAGGAUAUACGUGAGGUGUUUCGGCACUAGGUCUACAUGAGGAUCACCCAUGUAGAAGGCGAUCAGA [EX2 #64] (Eterna round: R97, puzzle: Exclusion 2) |  |  |  | 536 |  | 60.6
6 | CUCUACGGAGGAUAUACAACCGGUUAUCCCUGUGGAACGCCACAUGAGGAUCACCCAUGUAGAAGGCCGAGAAA [Ceones] (puzzle: Exclusion 2) | 15.2 | 211 | 218 |  |  | 
7 | UUGAUGUGAGGAUAUAUUUAGUGUUUUCUUUAUGUUUUAUAACUUGAGGAUCACCCAAGUAGAAGGCGCUACGU [JR_Ex2_Sub066] (Eterna round: R97, puzzle: Exclusion 2) |  |  |  | 19 |  | 13.9
8 | CUAUCUUGCAAGGAUAUGCAAUUUAUUAUUUAUGCAGAAGGUGCUACAUGAGGAUCACCCAUGUUUCUGGGUUU [JR_E6_Sub046] (puzzle: Exclusion 6) |  | 117 |  |  |  | 
9 | AGCCCUGCAGGAUAUGCCCGGGAUAACAUGAGGAUCACCCAUGUGACUGAUUGUUAUUCUGCAGAAGGGUAUGGGA [JL-EX5-4.16 ViennaUCT mod] (Eterna round: R97, puzzle: Exclusion 5) |  |  |  | 404 |  | 322
10 | GUUAAGGUAGGAUAUACGAUAAGAUAGGGUAGAUAUAUAACACAUGAGGAUCACCCAUGUAGAAGGACCAAUUG [Mat - Exclusion 2 - Mod of my Tesla design - D56] (puzzle: Exclusion 2) |  | 29.2 |  |  |  | 
11 | AUAAUGUGAGGAUAUCAGUCGACUAGCUUCGGCUAGUCGACUGAGAAGGUACAUGAGGAUCACCCAUGUGGUUC [E4/11-B1] (Eterna round: R97, puzzle: Exclusion 4) |  |  |  | 885 |  | 456
12 | UUAUUAUAUGAAGGAUAUACUUAACAUGAGGAUCACCCAUGUGGUGUUGUGAGUGAGUGAGUUUAGUAGAAGGUCAAUUCUUUU [JMF's solution 93] (Eterna round: R96, puzzle: Exclusion NG 2) |  |  |  |  | 418 | 
13 | AAGCAGGUGUAGGCCGUCUACAUGAGGAUCACCCAUGUGCCUCAUCCACCCGGCACCCAAUAAAGCGGGCGCCGGGC [Teququ] (Eterna round: R96, puzzle: Sensor v2, turn-off variant) |  |  |  | 113 | 65.3 | 103
14 | AAGAAACAUGAGGAUCACCCAUGUGAGGAUAUGACGAAGAAAAGAAAAGAAAGAAGAAUCAGAAGGCACAAAGG [salish99-ex1_r3_052] (puzzle: Exclusion 1) | 64.1 | 40.8 | 51.6 |  |  | 
15 | AAUAACAGAGGAUAUACUAUUUUAUGUGUUUAUUGUUUUAAACAUGAGGAUCACCCAUGUAGAAGGCUGAUUGA [JMF 73] (puzzle: Exclusion 2) |  | 65.5 |  |  |  | 
16 | GCUGGAGCAGGAUAUUCAAUAUCACACAUGAGGAUCACCCAUGUCCAGCGAAAGCUGGAGGGAGAAGGGCUCUAGC [Mat - Exclusion 5 - Eli mod - D98] (puzzle: Exclusion 5) | 17.6 | 60.4 | 76 |  |  | 
17 | AGAAAUGCCCAUGGCCACAAGCUUUUUGCUUAUCUUACCACAUGAGGAUCACCCAUGUGACAUGGGCUCCUGAUAAU [Teedor] (puzzle: Sensor v3, turn-off variant 2) | 18.5 | 19.4 | 17.1 |  |  | 

Row | Sequence | apparent KD of MS2 coat protein [1] [nM] | apparent KD of MS2 coat protein [2] [nM] | apparent KD of MS2 coat protein [3] [nM] | apparent KD of MS2 coat protein (input ligand: FMN 200 uM) [nM] | apparent KD of MS2 coat protein [4] [nM] | apparent KD of MS2 coat protein (input ligand: none) [nM]
18 | UUCCUCAGCUAGGAUAUCAAGGCACCACCCUAAUGAGAAGGAGCAACAUGAGGAUCACCCAUGUGGGUUUCUUA [Aterre] (Eterna round: R97, puzzle: Exclusion 6) |  |  |  | 143 |  | 54.9
19 | GCUUGCUUUUUGGUUUUCAACAUGAGGAUCACCCAUGUUCGUCUUGUGCUCGGGCUUGGGCGGUGUCCGGGUUUGGG [A 9%, less GC] (Eterna round: R97, puzzle: Sensor, turn-off variant 1) |  |  |  | 55.8 |  | 60.6
20 | CUCCCACAUGAGGAUCACCCAUGUGAGGAUAUGGAGCGCGACCGCGCGGUCGCGUACACCAGAAGGCGCAUGAU [1st #81] (Eterna round: R97, puzzle: Exclusion 1) |  |  |  | 24.1 |  | 21.1
21 | CUUGUUUAUGUAGGAUAUGCCUGGCGUGCCUUUGCAGAAGGACAUGAGGAUCACCCAUGUAUUGCGGUCUGCGUUCAGAUCGCG [salish99_ExNG1_r4_043] (Eterna round: R96, puzzle: Exclusion NG 1) |  |  |  | 39 | 25.8 | 34.9
22 | CUAUUGUGAGGAUAUCAGGUGUGCUAGCGUACUGGUACAUCUGAGAAGGCACAUGAGGAUCACCCAUGUUUCUU [JL-ex4-3.20 Brourd mod] (puzzle: Exclusion 4) |  | 18.4 |  |  |  | 
23 | CCAGCGUAUGUGAGGAUAUGCUGGUCCUUGGAUCAGCAGAAGGCACAUGAGGAUCACCCAUGUGGAAACGUUGG [Mod of JL 1 - Jieux - Brourd's mod of Exclusion 4] (Eterna round: R97, puzzle: Brourd's mod of Exclusion 4) |  |  |  | 95.4 |  | 24.3
24 | UCCAACCCUGUGAGGAUAUCGUCCAUUAUUUGUAACGAGAAGGCACAUGAGGAUCACCCAUGUUUUUUAUUUUU [JR_BMOE4_Sub080] (puzzle: Brourd's mod of Exclusion 4) | 83.7 | 28 | 22.5 |  |  | 
25 | CCAUUCAGAGGAUAUGCGCAUAAAUAAGACUUUUUUUUUUAACAUGAGGAUCACCCAUGUAGAAGGCUGUAACC [Ex2 #46] (Eterna round: R97, puzzle: Exclusion 2) |  |  |  | 24.6 |  | 24.8
26 | GUCACAUGGAUGUAGGAUCACAUGAGGAUCACCCAUGUGACUAACAAGGUUUUUGCUCAUCUUAUGACUAUGUGAAU [A Brourd mod] (Eterna round: R97, puzzle: Sensor, turn-off variant 1) |  |  |  | 91.7 |  | 103
27 | AUUAAAACGGCAGGAUAUCAGCGACAUGAGGAUCACCCAUGUUAGGGCUGACCCUGGAGUCUGGCUGAGAAGGGCCGACUCUCA [Riququ] (Eterna round: R96, puzzle: Exclusion NG 2) |  |  |  | 192 | 33.2 | 59.9
28 | ACAAGCUUAAUCUGUAUGAACAUGAGGAUCACCCAUGUAUAAGGGAAUUCUUUUGGGUUUUUUAUUGCUCGUCUUAU [JR_STOV1_Sub021] (Eterna round: R97, puzzle: Sensor, turn-off variant 1) |  |  |  | 317 |  | 311
29 | UAUAUAUAGUAAGGAUAUGUAUAUAUUUUAUAGACAGAAGGUACUGACAUGAGGAUCACCCAUGUUUUAGUGUGGGCAUGUAGA [JMF's solution 72] (Eterna round: R96, puzzle: Exclusion NG 1) |  |  |  | 105 | 50.4 | 50.5
30 | AAAACGUCAGGAUAUCCAAUAUAUGACAUGAGGAUCACCCAUGUUUCCACUCGUACCUCCGGAGAAGGGACUUAUA [Ex5 #83] (Eterna round: R97, puzzle: Exclusion 5) |  |  |  | 43.9 |  | 46.2
31 | CUUAGACAUGAGGAUCACCCAUGUGAGGAUAUGAUGCGGGAGACGAAAAGUUUCAGCAUCAGAAGGCACAUAUG [mod of disincluded 3 v.3 (my top score 87 - 34% A's)] (puzzle: Exclusion 1) | 349 | 175 | 172 |  |  | 
32 | UAUUAGCAAGCAAGAUCCUACAUGAGGAUCACCCAUGUGCUCGUCUUAAGCCCAGAAUUACUGGGCGCUCGUCUUAU [Winner reversed engineered 21] (Eterna round: R97, puzzle: Sensor, turn-off variant 1) |  |  |  | 521 |  | 684
33 | AUAUUAAGUGUGAGGAUAUGCUGGUCCUUGGAUCAGCAGAAGGCACAUGAGGAUCACCCAUGUAAUAUAUUUAU [Mat - Exclusion 4 - JL Mod - D47] (puzzle: Brourd's mod of Exclusion 4) |  | 78.6 |  |  |  | 
34 | AGCUGUGGCCGAGGAUAUUGCGAACCAUGGAAAACCAUGGAAACUCUACAUGAGGAUCACCCAUGUAAGAAGGCGGUCUCAGCA [Eli eng2 - 025] (Eterna round: R96, puzzle: Exclusion NG 2) |  |  |  | 18.7 | 10.7 | 15.8
